In general, Kd refers to the concentration at which binding is half-saturated. The IC50 is the concentration needed to halve the response being measured.

Assay [1] has as its target T1, human IL1RAP on the cell surface (human, UniProt Q9NPH3 21-570).
T1 sequence (looked up): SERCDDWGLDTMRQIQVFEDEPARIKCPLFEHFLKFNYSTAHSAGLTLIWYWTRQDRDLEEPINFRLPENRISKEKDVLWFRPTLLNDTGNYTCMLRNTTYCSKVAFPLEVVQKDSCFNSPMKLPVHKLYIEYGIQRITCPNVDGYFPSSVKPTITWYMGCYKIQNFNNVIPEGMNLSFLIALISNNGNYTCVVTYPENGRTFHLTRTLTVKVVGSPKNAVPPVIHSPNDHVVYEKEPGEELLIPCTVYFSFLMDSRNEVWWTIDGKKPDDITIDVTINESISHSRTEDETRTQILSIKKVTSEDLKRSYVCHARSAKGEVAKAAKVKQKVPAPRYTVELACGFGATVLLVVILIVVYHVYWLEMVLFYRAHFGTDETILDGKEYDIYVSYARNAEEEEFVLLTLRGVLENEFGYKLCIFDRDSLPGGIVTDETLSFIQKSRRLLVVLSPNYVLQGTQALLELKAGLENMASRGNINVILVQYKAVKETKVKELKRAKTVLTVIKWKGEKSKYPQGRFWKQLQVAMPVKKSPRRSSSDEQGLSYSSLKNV
As to the kind of experiment: cell-based or functional assay.

In assay [2] the target is T2, recombinant hIL1RAP Domain1+2+3 (aa21-367) (human, UniProt Q9NPH3 21-367).
T2 construct: Numbering on Uniprot Q9NPH3
T2 sequence (looked up): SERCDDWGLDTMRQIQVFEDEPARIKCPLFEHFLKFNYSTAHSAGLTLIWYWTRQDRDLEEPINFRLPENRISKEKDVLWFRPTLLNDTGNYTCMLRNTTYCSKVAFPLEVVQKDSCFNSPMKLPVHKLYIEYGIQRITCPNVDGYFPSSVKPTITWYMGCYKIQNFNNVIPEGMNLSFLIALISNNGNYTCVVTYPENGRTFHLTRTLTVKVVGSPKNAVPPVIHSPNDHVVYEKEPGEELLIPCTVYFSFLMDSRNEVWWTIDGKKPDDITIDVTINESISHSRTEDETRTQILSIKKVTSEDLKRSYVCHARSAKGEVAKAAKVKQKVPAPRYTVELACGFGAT
The experiment in a line: bio-layer interferometry, human IL1RAP. As to the method: (§1) Affinity measurements were done on BLItz™ Label-Free Protein Analysis System from ForteBio, using the Basic Kinetics module in the BLItz Pro 1.3.1.3 software from Molecular Devices. Protein A biosensors were hydrated in blocking buffer (PBS, 0.5% BSA, 0.05% Tween 20, pH 7.4) for minimum 10 min at room temperature before coating. Protein A biosensors were coated with antibodies by dipping the biosensors in 200 μl of antibody solution (10 μg/ml in blocking buffer) for 30 min at room temperature. The sensors were then incubated in 200 μl blocking buffer for at least 10 min before use. […] The baseline was made in blocking buffer with a duration time of 30 sec. Association was made for 120 sec in hIL1RAP followed by 120 sec dissociation in blocking buffer.
KD values for affinity towards human IL1RAP are shown in Table 17 for the de-immunized h48D2 variants. Affinity was measured using bio-layer interferometry. […] See also Table 4 for a direct comparison of 48D2, humanized 48D2, and de-immunized h48D2.
Background: In BLI a coated tip is dipped into the sample, and binding shifts an interference pattern.

For assay [3], the target named is T1, human IL1RAP on the cell surface. The experiment in a line: cell-based or functional assay. The source holds these as a separate data set.
Assay [4] addresses T2, recombinant hIL1RAP Domain1+2+3 …. As to the kind of experiment: bio-layer interferometry, human IL1RAP. The procedure: as §1
The antibodies were characterized for A) binding (ELISA analysis, human and cynomolgus monkey IL1RAP), B) inhibition of cytokine signaling (HEK-Blue™ assay), C) affinity (Bio-layer interferometry), D) size heterogeneity (SE-HPLC) and E) yield (concentration, A280). […] SE-HPLC was performed using standard procedures and PBS as running buffer. Affinity and cytokine inhibition were measured as previously described in Example 10. All 25 humanized clones were analyzed for blocking activity on IL-1α, IL-1β and IL-33 signaling while only the clones that had retained the inhibitory activity similar to chimeric 48D2 were analyzed for IL-36 inhibition.
KD values for affinity towards human IL1RAP are shown in Table 11 for the humanized 48D2 variants. Affinity was measured using bio-layer interferometry. […] See also Table 4 for a direct comparison of chimeric 48D2, humanized 48D2 variant VH5:VL4, and a humanized and de-immunized 48D2 variant VH5.GL:VL4.
This is another data set of the same source.

The target is the same in assay [5]. As to the kind of experiment: binding ELISA, coated recombinant hIL1RAP aa21-367. (An ELISA detects its analyte on a solid surface through an enzyme-linked reagent.)
Assay [6] concerns the target T3, recombinant mf IL1RAP aa21-367 (cynomolgus monkey (Macaca fascicularis), UniProt A0A2K5X5J5 21-367).
T3 construct: also called cynomolgus monkey IL1RAP; cyno IL1RAP
T3 sequence: T2 sequence (looked up) with L183F, T273P, K326T
The experiment in a line: binding ELISA, coated recombinant mf IL1RAP aa21-367.

Positions count from the first letter of the chain named. Like-named read-outs stand apart in the source and are kept apart here.

B1: h48D2 VH5.AP:VL4 (antibody, human IgG1, kappa, L234A L235A, V domains shown)
VH: QEQLEESGGGLVKPGGTLSLTCTVSGPSLSHFDITWIRQPPGSGLEWIGTISPGVSTYYASWAKSRVTISVDTSLNTVSLKLSSVTAADTATYFCARGGVGSSWKAFDLWGPGTLVTISS
VL: ELVMTQSPSSVSASVGDRVTITCQASESISTALAWYQQKPGKAPKLLIYKASTLPSGVPSRFSGSGSGTDFTLTINSLQPEDFATYYCQQGFSSGNVHNAFGGGTKVEIKR
notes: Humanized and de-immunized; also called VL4:VH5.AP
B1: in assay [1], the “IC50 of IL-1α signaling (HEK-Blue assay)” value amounted to 0.209 nM, the “IC50 of IL-1β signaling (HEK-Blue assay)” value was determined as 0.122 nM, the “IC50 of IL-33 signaling (HEK-Blue assay)” value was 1.48 nM and the “IC50 of IL-36α signaling (HEK-Blue assay)” value (“IC50 of IL-36α signaling” for short) was 0.132 nM. Further, in assay [1], the “IC50 of IL-36β signaling (HEK-Blue assay)” value (“IC50 of IL-36β signaling” for short) is 0.146 nM and the “IC50 of IL-36γ signaling (HEK-Blue assay)” value (“IC50 of IL-36γ signaling” for short) amounted to 0.182 nM. In assay [2], the Kd worked out at 1.7 nM.

B2: h48D2 VH5:VL5.GL (antibody, human IgG1, kappa, L234A L235A)
heavy: not shown
light: DIQMTQSPSTLSASVGDRVTITCQASESISTALAWYQQKPGQPPKLLIYKASTLPSGVPSRFSGSGSGTEFTLTISDLESDDAATYYCQQGFSSGNVHNAFGGGTEVVVKRTVAAPSVFIFPPSDEQLKSGTASVVCLLNNFYPREAKVQWKVDNALQSGNSQESVTEQDSKDSTYSLSSTLTLSKADYEKHKVYACEVTHQGLSSPVTKSFNRGEC
notes: Humanized and de-immunized; also called VL5.GL:VH5
Regarding B2, in assay [1], the “IC50 of IL-1α signaling (HEK-Blue assay)” value was 0.236 nM, the “IC50 of IL-1β signaling (HEK-Blue assay)” value stood at 0.105 nM, the “IC50 of IL-33 signaling (HEK-Blue assay)” value came to 7.83 nM and the “IC50 of IL-36α signaling” value turned out to be 0.158 nM. Besides, in assay [1], the “IC50 of IL-36β signaling” value is 0.165 nM and the “IC50 of IL-36γ signaling” value is 0.217 nM. Moreover, the Kd in assay [2] worked out at 0.752 nM.

B3: h48D2 VH5.SK:VL4 (antibody, human IgG1, kappa, L234A L235A, V domains shown)
VH: B1 VH with P40A, S43K
VL: B1 VL
notes: Humanized and de-immunized; also called VL4:VH5.SK
Consider B3, for which, in assay [1], the “IC50 of IL-1α signaling (HEK-Blue assay)” value is 0.213 nM, the “IC50 of IL-1β signaling (HEK-Blue assay)” value amounted to 0.099 nM, the “IC50 of IL-33 signaling (HEK-Blue assay)” value was found to be 5.44 nM and the “IC50 of IL-36α signaling” value is 0.143 nM. In addition, in assay [1], the “IC50 of IL-36β signaling” value was determined as 0.108 nM and the “IC50 of IL-36γ signaling” value was determined as 0.17 nM. Moreover, the Kd in assay [2] amounted to 2 nM.

B4: h48D2 VH4:VL5 (antibody, human IgG1, kappa, L234A L235A, V domains shown)
VH: QVQLQESGPGLVKPSETLSLTCTVSGPSLSHFDITWIRQPPGKGLEWIGTISPGVSTYYASWAKSRFTISVDTSKNQFSLKLTSVTAADTATYYCARGGVGSSWKAFDLWGPGTLVTVSS
VL: APVLTQSPATLEASVGDRVTITCQASESISTALAWYQQKPGQPPKLLIYKASTLPSGVPSRFSGSGSGTEFTLTISDLESDDAATYYCQQGFSSGNVHNAFGGGTEVVVKR
notes: Humanized; also called VL5:VH4
Regarding B4, in assay [3], the “IC50 of IL-1β signaling (HEK-Blue assay)” value worked out at 0.273 nM and the “IC50 of IL-33 signaling (HEK-Blue assay)” value was determined as 74.3 nM. The Kd in assay [4] turned out to be 15 nM. Moreover, the IC50 in assay [5] turned out to be 0.0258 µg/mL. For the same molecule, the IC50 in assay [6] was 0.0244 µg/mL.

B5: h48D2 VH5.AP:VL5 (antibody, human IgG1, kappa, L234A L235A)
heavy: not shown
light: B2 light with D1A, I2P, Q3V, M4L, S9A, S12E
notes: Humanized and de-immunized; also called VL5:VH5.AP
As for B5, in assay [1], the “IC50 of IL-1α signaling (HEK-Blue assay)” value came to 0.178 nM, the “IC50 of IL-1β signaling (HEK-Blue assay)” value is 0.098 nM, the “IC50 of IL-33 signaling (HEK-Blue assay)” value is 1.68 nM and the “IC50 of IL-36α signaling” value is 0.149 nM. Besides, in assay [1], the “IC50 of IL-36β signaling” value came out at 0.134 nM and the “IC50 of IL-36γ signaling” value was 0.191 nM. Besides, in assay [2], the Kd was found to be 1.96 nM.

B6: h48D2 VH5.AP:VL5.GL (antibody, human IgG1, kappa, L234A L235A)
heavy: not shown
light: B2 light
notes: Humanized and de-immunized; also called VL5.GL:VH5.AP
As to B6, in assay [1], the “IC50 of IL-1α signaling (HEK-Blue assay)” value stood at 0.204 nM, the “IC50 of IL-1β signaling (HEK-Blue assay)” value worked out at 0.107 nM, the “IC50 of IL-33 signaling (HEK-Blue assay)” value worked out at 2.97 nM and the “IC50 of IL-36α signaling” value was determined as 0.178 nM. In assay [1], the “IC50 of IL-36β signaling” value is 0.162 nM and the “IC50 of IL-36γ signaling” value came out at 0.19 nM. Further, the Kd in assay [2] came to 1.5 nM.

B7: h48D2 VH5.SK:VL5 (antibody, human IgG1, kappa, L234A L235A)
heavy: not shown
light: B2 light with D1A, I2P, Q3V, M4L, S9A, S12E
notes: Humanized and de-immunized; also called VL5:VH5.SK
Take B7: in assay [1], the “IC50 of IL-1α signaling (HEK-Blue assay)” value was 0.172 nM, the “IC50 of IL-1β signaling (HEK-Blue assay)” value amounted to 0.061 nM, the “IC50 of IL-33 signaling (HEK-Blue assay)” value came to 2.87 nM and the “IC50 of IL-36α signaling” value turned out to be 0.136 nM. Further, in assay [1], the “IC50 of IL-36β signaling” value was found to be 0.125 nM and the “IC50 of IL-36γ signaling” value was determined as 0.157 nM. In addition, the Kd in assay [2] is 2.8 nM.

B8: h48D2 VH5.GL:VL5 (antibody, human IgG1, kappa, L234A L235A)
heavy: not shown
light: B2 light with D1A, I2P, Q3V, M4L, S9A, S12E
notes: Humanized and de-immunized; also called VL5:VH5.GL
For B8, in assay [1], the “IC50 of IL-1α signaling (HEK-Blue assay)” value turned out to be 0.214 nM, the “IC50 of IL-1β signaling (HEK-Blue assay)” value was determined as 0.0999 nM, the “IC50 of IL-33 signaling (HEK-Blue assay)” value was found to be 2.46 nM and the “IC50 of IL-36α signaling” value stood at 0.128 nM. In addition, in assay [1], the “IC50 of IL-36β signaling” value amounted to 0.135 nM and the “IC50 of IL-36γ signaling” value came out at 0.129 nM. Further, in assay [2], the Kd is 1.87 nM.

B9: h48D2 VH5.SK:VL5.GL (antibody, human IgG1, kappa, L234A L235A)
heavy: not shown
light: B2 light
notes: Humanized and de-immunized; also called VL5.GL:VH5.SK
In the case of B9, in assay [1], the “IC50 of IL-1α signaling (HEK-Blue assay)” value was 0.321 nM, the “IC50 of IL-1β signaling (HEK-Blue assay)” value was 0.117 nM, the “IC50 of IL-33 signaling (HEK-Blue assay)” value turned out to be 3.11 nM and the “IC50 of IL-36α signaling” value worked out at 0.204 nM. Further, in assay [1], the “IC50 of IL-36β signaling” value was determined as 0.16 nM and the “IC50 of IL-36γ signaling” value is 0.245 nM. Moreover, the Kd in assay [2] is 2.28 nM.

(Values after patent US20220242950A1 (CANTARGIA, published 2022).)
